Assay results from paper PMC3592454.

B1: PR (WT) (dsDNA)
DNA 1: GCGTGTTGACTATTTTACCTCTGGCGGTGATAATGGTTGCATGTACTAAGGAGGTTGTATGGAACAACGCA
DNA 2: TGCGTTGTTCCATACAACCTCCTTAGTACATGCAACCATTATCACCGCCAGAGGTAAAATAGTCAACACGC
modifications: 5'-C6-amino linker
B2: P1 galP1+P2-P3+ (dsDNA)
DNA 1: TTTTCGCATCTTTTCGTTGCTATGGTTATTTCATACCATAAGCCTAATGGAGCGAATTATGAG
DNA 2: CTCATAATTCGCTCCATTAGGCTTATGGTATGAAATAACCATAGCAACGAAAAGATGCGAAAA
modifications: 5'-C6-amino linker

Target: RNA polymerase holoenzyme with sigma70 Q437A (Escherichia coli, UniProt P00579;P0A7Z4;P0A8V2;P0A8T7;P0A800 1-613;1-329;1-1342;1-1407;2-91, Q437A)
Experiment: fluorescence anisotropy

| Binder | Kd [nM] |
| --- | --- |
| B1 | 14.9 |
| B2 | 0.76 ± 0.1 |
